Reference: paper PMC7531507

Columns and labels:
[1] = target: cynomolgus monkey GLP-1R (cynomolgus monkey)
rat GLP-1R (rat) = rat GLP-1R (rat) (UniProt P32301)
rat GCGR (rat) = rat GCGR (rat) (UniProt P30082)
[2] = target: human glucagon receptor (GCGR) (human) (UniProt P47871)
mouse GLP-1R (mouse) = mouse GLP-1R (mouse) (UniProt O35659)
[3] = target: cynomolgus monkey GCGR (cynomolgus monkey)
mouse GCGR (mouse) = mouse GCGR (mouse) (UniProt Q61606)
Chain of UniProt Q61606 (Q61606 27-485): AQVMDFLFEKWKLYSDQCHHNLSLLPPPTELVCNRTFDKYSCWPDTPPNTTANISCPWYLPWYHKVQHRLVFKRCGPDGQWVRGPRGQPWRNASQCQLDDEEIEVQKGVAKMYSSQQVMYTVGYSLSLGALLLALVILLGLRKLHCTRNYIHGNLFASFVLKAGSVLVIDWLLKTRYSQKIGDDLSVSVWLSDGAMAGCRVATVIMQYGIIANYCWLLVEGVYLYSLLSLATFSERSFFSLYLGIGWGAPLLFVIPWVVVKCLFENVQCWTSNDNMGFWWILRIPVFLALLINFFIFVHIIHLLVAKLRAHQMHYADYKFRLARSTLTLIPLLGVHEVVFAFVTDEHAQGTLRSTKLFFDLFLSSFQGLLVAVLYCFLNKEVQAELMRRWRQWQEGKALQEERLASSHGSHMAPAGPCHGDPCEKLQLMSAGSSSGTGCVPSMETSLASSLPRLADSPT

Chain of UniProt P30082 (P30082 27-485): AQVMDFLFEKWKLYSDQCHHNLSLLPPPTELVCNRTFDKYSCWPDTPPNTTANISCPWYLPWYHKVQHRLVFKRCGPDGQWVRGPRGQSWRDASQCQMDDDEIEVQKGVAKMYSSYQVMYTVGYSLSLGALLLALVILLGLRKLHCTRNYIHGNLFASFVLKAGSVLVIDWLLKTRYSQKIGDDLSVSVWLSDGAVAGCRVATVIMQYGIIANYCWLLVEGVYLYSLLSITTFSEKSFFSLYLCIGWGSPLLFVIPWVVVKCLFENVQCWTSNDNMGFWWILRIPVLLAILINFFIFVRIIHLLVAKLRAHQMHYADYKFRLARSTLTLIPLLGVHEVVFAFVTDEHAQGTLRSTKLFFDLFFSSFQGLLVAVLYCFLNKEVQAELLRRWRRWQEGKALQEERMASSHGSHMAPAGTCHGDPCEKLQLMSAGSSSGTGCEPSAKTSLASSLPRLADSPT
Chain of UniProt P47871 (P47871 26-477): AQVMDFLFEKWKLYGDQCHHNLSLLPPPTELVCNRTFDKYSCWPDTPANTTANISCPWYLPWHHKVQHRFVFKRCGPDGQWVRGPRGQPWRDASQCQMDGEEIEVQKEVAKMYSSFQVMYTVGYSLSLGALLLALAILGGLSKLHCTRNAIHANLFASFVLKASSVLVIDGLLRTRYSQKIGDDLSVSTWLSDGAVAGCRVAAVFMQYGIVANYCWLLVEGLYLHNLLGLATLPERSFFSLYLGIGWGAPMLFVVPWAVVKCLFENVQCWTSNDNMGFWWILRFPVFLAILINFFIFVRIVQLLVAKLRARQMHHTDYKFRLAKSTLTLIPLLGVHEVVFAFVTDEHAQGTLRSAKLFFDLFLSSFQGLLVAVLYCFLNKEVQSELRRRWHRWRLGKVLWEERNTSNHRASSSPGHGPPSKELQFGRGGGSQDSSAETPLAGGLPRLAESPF
Chain of UniProt O35659 (O35659 22-463): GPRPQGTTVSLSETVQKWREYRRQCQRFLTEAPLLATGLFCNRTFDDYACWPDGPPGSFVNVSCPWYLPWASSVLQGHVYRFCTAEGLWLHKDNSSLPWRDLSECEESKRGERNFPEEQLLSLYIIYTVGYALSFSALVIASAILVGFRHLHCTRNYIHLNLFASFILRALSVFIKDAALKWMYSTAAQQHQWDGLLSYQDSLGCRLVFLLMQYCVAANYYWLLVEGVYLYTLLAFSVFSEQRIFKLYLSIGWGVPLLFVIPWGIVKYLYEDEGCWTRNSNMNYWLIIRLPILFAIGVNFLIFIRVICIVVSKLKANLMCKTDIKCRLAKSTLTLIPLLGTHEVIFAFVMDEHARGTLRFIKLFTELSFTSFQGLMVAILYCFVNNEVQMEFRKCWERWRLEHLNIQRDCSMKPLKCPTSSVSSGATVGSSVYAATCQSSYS
Chain of UniProt P32301 (P32301 22-463): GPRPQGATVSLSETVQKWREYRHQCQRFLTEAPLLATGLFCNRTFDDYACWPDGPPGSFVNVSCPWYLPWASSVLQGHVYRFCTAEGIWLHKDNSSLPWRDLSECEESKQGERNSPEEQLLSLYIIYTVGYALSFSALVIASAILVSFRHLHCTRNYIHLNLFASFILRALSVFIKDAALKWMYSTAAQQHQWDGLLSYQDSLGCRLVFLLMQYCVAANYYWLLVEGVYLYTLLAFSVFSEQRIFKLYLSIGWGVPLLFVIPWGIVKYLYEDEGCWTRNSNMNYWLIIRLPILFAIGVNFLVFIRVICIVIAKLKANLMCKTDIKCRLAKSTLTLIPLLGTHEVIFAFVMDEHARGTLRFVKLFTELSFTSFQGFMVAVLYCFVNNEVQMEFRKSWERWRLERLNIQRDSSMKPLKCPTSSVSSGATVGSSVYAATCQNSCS

native oxyntomodulin (peptide) gave an EC50 of cAMP in clonal HEK293 cells stably expressing cynomolgus monkey GLP-1R [1] of 0.8 nM, an EC50 of cAMP in clonal HEK293 cells stably expressing rat GLP-1R (rat GLP-1R (rat)) of 0.98 nM and an EC50 of cAMP in clonal HEK293 cells stably expressing rat GCGR (rat GCGR (rat)) of 12.7 nM. It also gave an EC50 of cAMP in clonal HEK293 cells stably expressing human GCGR [2] of 3.01 nM, an EC50 of cAMP in clonal HEK293 cells stably expressing mouse GLP-1R (mouse GLP-1R (mouse)) of 1.9 nM and an EC50 of cAMP in clonal HEK293 cells stably expressing cynomolgus monkey GCGR [3] of 0.49 nM. For the same substance, the EC50 of cAMP in clonal HEK293 cells stably expressing mouse GCGR (mouse GCGR (mouse)) was 6.31 nM.
